Measurements: publication PMC2699478

Columns and labels:
[1] = molecular target: NF-kB (mouse (endogenous in NIH3T3))
[2] = molecular target: NFAT (mouse (endogenous in NIH3T3)) (UniProt Q60591)
UniProt Q60591, sequence (Q60591 whole entry): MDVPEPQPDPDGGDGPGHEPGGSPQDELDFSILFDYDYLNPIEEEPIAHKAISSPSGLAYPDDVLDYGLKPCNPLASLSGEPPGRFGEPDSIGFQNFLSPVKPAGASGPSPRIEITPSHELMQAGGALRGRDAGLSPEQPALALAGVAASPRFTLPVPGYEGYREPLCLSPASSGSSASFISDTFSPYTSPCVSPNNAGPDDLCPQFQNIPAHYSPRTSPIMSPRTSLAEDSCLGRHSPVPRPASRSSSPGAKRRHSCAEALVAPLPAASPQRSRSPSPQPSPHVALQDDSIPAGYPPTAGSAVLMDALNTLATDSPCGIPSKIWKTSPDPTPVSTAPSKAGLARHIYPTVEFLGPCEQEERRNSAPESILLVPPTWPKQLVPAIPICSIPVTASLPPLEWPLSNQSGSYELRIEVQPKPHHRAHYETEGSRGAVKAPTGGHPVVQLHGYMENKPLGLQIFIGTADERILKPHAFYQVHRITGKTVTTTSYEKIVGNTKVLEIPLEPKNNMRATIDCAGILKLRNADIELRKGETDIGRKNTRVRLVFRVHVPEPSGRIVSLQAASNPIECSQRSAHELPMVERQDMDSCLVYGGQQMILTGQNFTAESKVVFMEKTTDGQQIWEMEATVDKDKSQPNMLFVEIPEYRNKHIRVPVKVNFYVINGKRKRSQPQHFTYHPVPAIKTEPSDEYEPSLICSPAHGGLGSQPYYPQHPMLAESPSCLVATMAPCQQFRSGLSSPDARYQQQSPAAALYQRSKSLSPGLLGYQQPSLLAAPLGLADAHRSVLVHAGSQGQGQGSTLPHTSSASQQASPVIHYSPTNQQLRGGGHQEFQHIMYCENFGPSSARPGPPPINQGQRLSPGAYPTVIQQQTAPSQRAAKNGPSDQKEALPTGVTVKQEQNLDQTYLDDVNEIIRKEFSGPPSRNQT

NF-kB-mediated transcription of luciferase (pNF-κB-Luc) in NIH3T3 cells co-transfected with the FOXP3 isoform; level left, induction without FOXP3 set 100% [1]: 9% | NFAT-mediated transcription of luciferase (pNFAT-TA-Luc) in NIH3T3 cells co-transfected with the FOXP3 isoform; induction without FOXP3 set 100% [2]: 50%
Substance: FOXP3Δ2 (natural protein)
